From the supplement of paper PMC10126150
± gives the standard deviation of the averaged measurements.

Each sequence was assayed on ATP (assay: switch fluorescence ratio, 500 uM ATP over buffer (Cy3 cluster intensity, sum of 5 cycles each) (fold (ratio)); higher = stronger signal-on switching upon ATP binding; sequences stand for … in TCGTCGGCAGCGTCAGATGTGTATAAGAGACAGTTTTTTTTTTTTTTTTTTTTTTTTT…TC). Conditions: aptamer strand: ATP DNA aptamer (quencher-CACCTGGGGGAGTATTGCGGAGGAAGG + anchor), 100 nM annealed; ATP concentration: 500 uM.
Procedure, shortened: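 Values give the fluorescence ratio for each switch-domain sequence, averaged from per-cluster ratios of summed target-cycle to summed buffer-cycle Cy3 intensity. The Cy3-labelled switching-strand clusters sat on a modified Illumina MiSeq flow-cell, were annealed to 100 nM quencher-labelled ATP aptamer, and were imaged in selection buffer, then after 15 min with 500 uM ATP at 22 °C. Five cycles ran with NaOH stripping and re-annealing between them, and clusters outside 100-1000 RFU were excluded.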
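Also: ATP exposure 15 min at 22 °C before imaging.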

| Sequence | switch fluorescence ratio |
| --- | --- |
| GGTAAACAGG | 1.04 ± 0.031 |
| GGTAAATAAG | 0.961 ± 0.018 |
| GGTAAATGGG | 0.957 ± 0.011 |
| GGTAACCGCT | 1.01 ± 0.03 |
| GGTAACCTTT | 1.43 ± 0.58 |
| GGTAACGACA | 1.02 ± 0.019 |
| GGTAAGGGTT | 0.9866 ± 0.0081 |
| GGTAAGTTTG | 1.03 ± 0.028 |
| GGTAATATTT | 0.998 ± 0.031 |
| GGTAATGGTG | 1.0095 ± 0.00021 |
| GGTAATTGCG | 0.99 ± 0.022 |
| GGTACACGGG | 1.01 ± 0.054 |
| GGTACAGTTA | 0.985 ± 0.016 |
| GGTACGGGGG | 1 ± 0.013 |
| GGTACGGTAA | 1.11 ± 0.038 |
| GGTACGTATG | 0.986 ± 0.036 |
| GGTACTA | 1.02 ± 0.0021 |
| GGTACTGGAG | 1.04 ± 0.034 |
| GGTAGAAGCG | 1.02 ± 0.026 |
| GGTAGAAGGG | 0.989 ± 0.042 |
| GGTAGAATTA | 0.979 ± 0.032 |
| GGTAGCTTGG | 1.13 ± 0.17 |
| GGTAGGAGAT | 1.05 ± 0.036 |
| GGTAGGGATG | 0.962 ± 0.024 |
| GGTAGGGGGG | 1.01 ± 0.035 |
| GGTAGGGGGT | 1 ± 0.03 |

| Sequence | switch fluorescence ratio |
| --- | --- |
| GGTAGGTGGT | 0.98 ± 0.022 |
| GGTAGTATGG | 1 ± 0.03 |
| GGTAGTCCAC | 1.01 ± 0.027 |
| GGTAGTCCGG | 1.02 ± 0.054 |
| GGTAGTCCGT | 1.03 ± 0.016 |
| GGTAGTGGGT | 1 ± 0.013 |
| GGTAGTGTTT | 0.998 ± 0.035 |
| GGTAGTTAAA | 0.999 ± 0.024 |
| GGTAGTTTCA | 0.9966 ± 0.00047 |
| GGTATAAGGA | 0.996 ± 0.016 |
| GGTATATGGG | 0.994 ± 0.03 |
| GGTATCACGG | 0.9912 ± 0.0045 |
| GGTATCCGTG | 1.019 ± 0.0085 |
| GGTATGAAGG | 0.9664 ± 0.0095 |
| GGTATGACTT | 1.03 ± 0.07 |
| GGTATGATGG | 0.991 ± 0.01 |
| GGTATGCGGT | 0.974 ± 0.027 |
| GGTATGGATC | 0.9869 ± 0.0084 |
| GGTATGGGAC | 1 ± 0.022 |
| GGTATGGGTC | 0.947 ± 0.034 |
| GGTATGTAAG | 0.995 ± 0.02 |
| GGTATGTACG | 1.03 ± 0.054 |
| GGTATGTCGA | 0.954 ± 0.075 |
| GGTATTAAGG | 1.02 ± 0.013 |
| GGTATTAGAT | 1.01 ± 0.049 |
| GGTATTAGGG | 1.002 ± 0.0014 |

| Sequence | switch fluorescence ratio |
| --- | --- |
| GGTATTCAGG | 1.03 ± 0.018 |
| GGTATTCATG | 1.01 ± 0.011 |
| GGTATTCATT | 0.995 ± 0.036 |
| GGTATTGGGC | 0.9875 ± 0.0056 |
| GGTATTTATT | 1.01 ± 0.019 |
| GGTATTTGTA | 0.991 ± 0.031 |
| GGTATTTGTT | 1.01 ± 0.032 |
| GGTATTTTGC | 0.979 ± 0.048 |
| GGTATTTTTT | 0.997 ± 0.025 |
| GGTCAATGTG | 0.987 ± 0.033 |
| GGTCAATTAT | 1.05 ± 0.068 |
| GGTCACAAGA | 1 ± 0.032 |
| GGTCACGGGT | 0.981 ± 0.031 |
| GGTCAGGGGC | 1.08 ± 0.017 |
| GGTCATAGAC | 0.991 ± 0.026 |
| GGTCATTATT | 0.968 ± 0.057 |
| GGTCATTCAA | 0.982 ± 0.027 |
| GGTCCAACTG | 0.987 ± 0.036 |
| GGTCCAGGGC | 1.08 ± 0.04 |
| GGTCCCATCG | 0.985 ± 0.019 |
| GGTCCCGGGG | 1.05 ± 0.026 |
| GGTCCGATCG | 0.9694 ± 0.0045 |
| GGTCCGGGGA | 0.989 ± 0.013 |
| GGTCCGGGGG | 1.02 ± 0.025 |
| GGTCCTTTGA | 1 ± 0.029 |
| GGTCGAAAAC | 1.06 ± 0.11 |

| Sequence | switch fluorescence ratio |
| --- | --- |
| GGTCGAGGGT | 1.022 ± 0.0041 |
| GGTCGATTCG | 0.961 ± 0.013 |
| GGTCGCAACC | 1.04 ± 0.049 |
| GGTCGCTGCG | 0.9956 ± 0.0069 |
| GGTCGGGGTC | 0.966 ± 0.039 |
| GGTCGGGGTT | 1.02 ± 0.034 |
| GGTCGTCAGT | 0.986 ± 0.037 |
| GGTCGTTGCT | 0.9456 ± 0.0046 |
| GGTCGTTTGC | 1.05 ± 0.074 |
| GGTCTAAATT | 1 ± 0.039 |
| GGTCTAAGGG | 0.976 ± 0.036 |
| GGTCTAAGTG | 0.9816 ± 0.0034 |
| GGTCTAATGG | 0.998 ± 0.051 |
| GGTCTGGAAG | 0.982 ± 0.035 |
| GGTCTTACCA | 0.98367 ± 0.00036 |
| GGTCTTCCGC | 1.14 ± 0.088 |
| GGTGAAAAAG | 1.01 ± 0.011 |
| GGTGAAGAGT | 1 ± 0.038 |
| GGTGACACAG | 0.988 ± 0.017 |
| GGTGACAGGC | 1.04 ± 0.08 |
| GGTGAGAGTT | 0.956 ± 0.0087 |
| GGTGAGATGG | 1 ± 0.069 |
| GGTGAGGCTG | 0.996 ± 0.015 |
| GGTGAGGGGA | 1.01 ± 0.011 |
| GGTGAGGTGC | 0.9995 ± 0.0084 |
| GGTGATGGGA | 0.976 ± 0.021 |

| Sequence | switch fluorescence ratio |
| --- | --- |
| GGTGCACCGA | 0.9884 ± 0.0063 |
| GGTGCAGTGT | 1.05 ± 0.017 |
| GGTGCCGAAT | 0.998 ± 0.031 |
| GGTGCGGCTT | 1.007 ± 0.0072 |
| GGTGCGGGCG | 1.02 ± 0.11 |
| GGTGCGGGGG | 0.987 ± 0.093 |
| GGTGCTGAAG | 1.01 ± 0.021 |
| GGTGCTGGGG | 1.01 ± 0.019 |
| GGTGCTTAAT | 1 ± 0.037 |
| GGTGGAAATC | 1.09 ± 0.16 |
| GGTGGAGATC | 1 ± 0.051 |
| GGTGGAGCGG | 1 ± 0.047 |
| GGTGGAGGTT | 1.02 ± 0.051 |
| GGTGGATTGC | 1.04 ± 0.02 |
| GGTGGCATGT | 0.997 ± 0.054 |
| GGTGGCTAGC | 1 ± 0.044 |
| GGTGGCTTAA | 0.96 ± 0.024 |
| GGTGGGAAGA | 1.02 ± 0.017 |
| GGTGGGCAAT | 1.11 ± 0.045 |
| GGTGGGGCTG | 0.968 ± 0.03 |
| GGTGGGGGCG | 1 ± 0.024 |
| GGTGGGGGCT | 0.973 ± 0.034 |
| GGTGGGGTCG | 0.991 ± 0.046 |
| GGTGGGGTTG | 1 ± 0.04 |
| GGTGGGTGAG | 0.9745 ± 0.0094 |
| GGTGGGTGTA | 0.957 ± 0.051 |

| Sequence | switch fluorescence ratio |
| --- | --- |
| GGTGGGTGTT | 0.951 ± 0.017 |
| GGTGGGTTGG | 0.982 ± 0.034 |
| GGTGGGTTTT | 0.99 ± 0.013 |
| GGTGGTCGAC | 1.03 ± 0.038 |
| GGTGGTGGAC | 0.992 ± 0.037 |
| GGTGGTGGCG | 1.01 ± 0.059 |
| GGTGGTTGGG | 1.01 ± 0.038 |
| GGTGGTTTTT | 1.03 ± 0.099 |
| GGTGTAATTG | 1.003 ± 0.0065 |
| GGTGTAGATT | 1.07 ± 0.04 |
| GGTGTATGGG | 1.01 ± 0.014 |
| GGTGTATTGG | 0.991 ± 0.029 |
| GGTGTCTCCC | 1 ± 0.039 |
| GGTGTGCAAG | 0.947 ± 0.04 |
| GGTGTGGAAA | 1 ± 0.015 |
| GGTGTGGAAT | 1.02 ± 0.033 |
| GGTGTGGGGT | 0.986 ± 0.02 |
| GGTGTTAGAC | 0.976 ± 0.029 |
| GGTGTTAGAT | 0.993 ± 0.035 |
| GGTGTTAGGG | 1.02 ± 0.027 |
| GGTGTTCGTG | 0.985 ± 0.019 |
| GGTGTTCTGC | 0.995 ± 0.081 |
| GGTGTTGCGG | 0.98 ± 0.038 |
